Measured values as given in PMC7059403 (Journal of the American Chemical Society, 2020).

What was measured:
[1] = target: T1, KdlD, Kdl dehydratase (Cupriavidus necator, UniProt Q0K4R0); assay: in vitro activity assay; assay type: biochemical
T1 sequence (Q0K4R0 1-310): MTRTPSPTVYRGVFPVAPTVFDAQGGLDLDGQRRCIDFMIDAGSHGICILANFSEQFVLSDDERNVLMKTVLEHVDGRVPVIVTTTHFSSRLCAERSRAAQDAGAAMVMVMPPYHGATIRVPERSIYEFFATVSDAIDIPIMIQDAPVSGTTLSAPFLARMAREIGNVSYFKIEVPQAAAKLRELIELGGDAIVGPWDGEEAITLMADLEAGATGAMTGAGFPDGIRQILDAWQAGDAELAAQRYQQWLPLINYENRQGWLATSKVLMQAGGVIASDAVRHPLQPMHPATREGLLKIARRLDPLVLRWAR

[2] = target: T2, LyxD (H16_B0217), L-lyxonate dehydratase (Cupriavidus necator, UniProt Q0K4Q6); assay: in vitro activity assay; assay type: biochemical
T2 sequence (Q0K4Q6 1-391): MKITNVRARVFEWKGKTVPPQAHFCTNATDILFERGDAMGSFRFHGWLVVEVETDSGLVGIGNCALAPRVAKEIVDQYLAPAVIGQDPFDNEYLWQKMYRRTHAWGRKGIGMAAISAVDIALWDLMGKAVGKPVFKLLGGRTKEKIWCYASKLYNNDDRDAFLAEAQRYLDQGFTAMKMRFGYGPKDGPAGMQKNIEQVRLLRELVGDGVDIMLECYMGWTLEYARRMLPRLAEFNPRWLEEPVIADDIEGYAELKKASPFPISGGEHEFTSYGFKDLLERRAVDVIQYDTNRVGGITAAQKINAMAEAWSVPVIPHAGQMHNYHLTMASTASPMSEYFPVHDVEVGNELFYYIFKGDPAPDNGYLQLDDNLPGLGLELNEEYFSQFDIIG

[3] = target: T3, KgsD (H16_B0212), Kgs dehydrogenase (Cupriavidus necator, UniProt Q0K4R1); assay: in vitro activity assay; assay type: biochemical
T3 sequence (Q0K4R1 1-527): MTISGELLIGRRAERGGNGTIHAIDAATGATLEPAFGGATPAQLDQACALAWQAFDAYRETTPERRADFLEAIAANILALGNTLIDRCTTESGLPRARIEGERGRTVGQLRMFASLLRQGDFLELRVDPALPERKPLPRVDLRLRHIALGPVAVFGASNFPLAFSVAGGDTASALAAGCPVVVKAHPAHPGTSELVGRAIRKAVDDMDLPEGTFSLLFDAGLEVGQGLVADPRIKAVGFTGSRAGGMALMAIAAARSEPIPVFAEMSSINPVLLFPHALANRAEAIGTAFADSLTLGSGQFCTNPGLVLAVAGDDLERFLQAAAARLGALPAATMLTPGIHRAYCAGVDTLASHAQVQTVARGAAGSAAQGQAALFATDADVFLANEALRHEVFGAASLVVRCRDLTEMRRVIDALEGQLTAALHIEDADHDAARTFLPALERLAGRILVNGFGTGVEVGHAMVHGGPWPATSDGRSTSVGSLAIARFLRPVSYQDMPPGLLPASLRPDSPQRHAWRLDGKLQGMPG

[4] = target: T4, ClxD (H16_B0216), Clx decarboxylase (Cupriavidus necator, UniProt Q0K4Q7); assay: in vitro decarboxylation assay; assay type: biochemical; conditions: with 2-carboxy-L-lyxonate; catalytic NAD+, regenerated in the reaction
T4 sequence (Q0K4Q7 1-338): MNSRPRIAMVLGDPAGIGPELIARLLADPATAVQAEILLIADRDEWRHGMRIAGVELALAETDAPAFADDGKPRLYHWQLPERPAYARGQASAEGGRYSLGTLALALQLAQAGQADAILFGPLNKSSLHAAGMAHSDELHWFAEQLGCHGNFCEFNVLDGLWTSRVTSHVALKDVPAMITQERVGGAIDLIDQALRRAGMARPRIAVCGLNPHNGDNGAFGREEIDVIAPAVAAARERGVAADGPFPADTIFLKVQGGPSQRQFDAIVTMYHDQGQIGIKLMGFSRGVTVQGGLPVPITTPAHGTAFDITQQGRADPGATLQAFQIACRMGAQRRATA

[5] = substrate: O=C(O)C(=O)C(=O)[C@H](O)[C@@H](O)CO; assay: in vitro enzyme kinetics; assay type: biochemical, Cupriavidus necator
[6] = substrate: O=C1O[C@H]([C@@H](O)CO)C(=O)C1=O; assay: in vitro enzyme kinetics; assay type: biochemical, Cupriavidus necator
[7] = substrate: O=C(O)C(O)(C(=O)O)[C@H](O)[C@@H](O)CO; assay: in vitro enzyme kinetics; assay type: biochemical, Cupriavidus necator; conditions: NAD+ as catalytic cofactor

O=C(O)C(=O)C[C@@H](O)CO [2-keto-3-deoxy-L-lyxonate]
in vitro activity assay (dehydration) [1]: heterologously expressed and display the predicted in vitro activities

O=C(O)[C@H](O)[C@H](O)[C@@H](O)CO [L-lyxonate]
in vitro activity assay (dehydration) [2]: heterologously expressed and display the predicted in vitro activities

O=CCCC(=O)C(=O)O [α-ketoglutarate semialdehyde]
in vitro activity assay (oxidation) [3]: heterologously expressed and display the predicted in vitro activities

NC(=O)c1ccc[n+]([C@@H]2O[C@H](COP(=O)(O)OP(=O)(O)OC[C@H]3O[C@@H](n4cnc5c(N)ncnc54)[C@H](O)[C@@H]3O)[C@@H](O)[C@H]2O)c1 [NAD^+]
in vitro decarboxylation assay; stopped-flow absorbance at 340 nm [4]: generates L-lyxonate (Figure 1C), even with sub-stoichiometric amounts of NAD^+

B1: DkgM (H16_B1217), DKG mutase (Cupriavidus necator H16) (protein)
chain: MESQWTAVLVEKFGHSFSAYELDGGERRFSVQLPDYPHEFVVDRERLCGYVGHYGVQTFAHAGDGGAAVIAVDLMRGAVRARLDCSPYHRIHGLQIDRQGRVYALSERDNMLVVFEAPLEHPVPDRAVPAGGVKSHLFVLSADGERAYVTNLLSHTVTLVHPYDATRAPRAAYAGRRPEGCCLSRDEAALYVASRDDHSLTRLDARTMEAVRTVPTGEDPTRIYWSPDDRLFVLNYGERSIRVFDPDTLAETGRVDTGARPIALAFHPADPSRAYIALNDHTVGQLDLPGLALRHAFTTGKEPDGLAILALPTR
Km [5]: 81 ± 7 µM
kcat [5]: 0.6 ± 0.1 s−^1

B2: DhaL (H16_A3012), DHA lactonase (Cupriavidus necator H16) (protein)
chain: MDTVRIFDERARELPLAGERLEQLACRATWSEGPVWLPDEDAVLWSDIPNDRILRWSAADGMSVWRTGAGFTNGHALEADGSLLHCSHGKRAIVRTHRSGARLGEDELVVSHYQGRRLNSPNDIVVKRDGTLWFTDPPYGILSDREGHRADPELRHNYVFRYDPAVGALEVASDLIEEPNGLAFSPDEDVLYVSDTSAALRDDGHHHIVAFDVVAGRVLANPRVFAVIAPGLPDGFRVDRRGWLFTSSASGVQVFHPDGTRLAHIPVPEKVGNLVFGGAEGDALFIAASTSLYRLRLGQRLT
Km [6]: 490 ± 70 µM
kcat [6]: 8.0 ± 0.6 s−^1

B3: ClxD (H16_B0216), Clx decarboxylase (Cupriavidus necator H16) (protein)
chain: MNSRPRIAMVLGDPAGIGPELIARLLADPATAVQAEILLIADRDEWRHGMRIAGVELALAETDAPAFADDGKPRLYHWQLPERPAYARGQASAEGGRYSLGTLALALQLAQAGQADAILFGPLNKSSLHAAGMAHSDELHWFAEQLGCHGNFCEFNVLDGLWTSRVTSHVALKDVPAMITQERVGGAIDLIDQALRRAGMARPRIAVCGLNPHNGDNGAFGREEIDVIAPAVAAARERGVAADGPFPADTIFLKVQGGPSQRQFDAIVTMYHDQGQIGIKLMGFSRGVTVQGGLPVPITTPAHGTAFDITQQGRADPGATLQAFQIACRMGAQRRATA
Km [7]: 800 ± 400 µM
kcat [7]: 0.33 ± 0.08 s−^1
